“And” between values parts separate entries of the source, which are not always exact repeats. Equal entries are not always repeated. Where two headings read alike, the source gives them in different places.
Columns and labels:
[1] = target: 6His-RVFV NP (Rift Valley fever virus nucleoprotein with N-terminal hexahistidine tag) (Rift Valley fever virus (strain Smithburn)) (UniProt P21700); experiment: SEC
[2] = target: 6His-RVFV NP (Rift Valley fever virus nucleoprotein with N-terminal hexahistidine tag) (Rift Valley fever virus (strain Smithburn)) (UniProt P21700); experiment: SEC; remark: listed apart in the source

For “6His-RVFV NP (Rift Valley fever virus nucleoprotein with N-terminal hexahistidine tag) (from UniProt P21700 1-245) (natural protein)”, the stoichiometry N [1] was 3 and 2 and the stoichiometry N [2] was 4.3.
